In patent publication US8088892B2, “Inhibitors of proteins from the Rho-GEF family” (Centre National de la Recherche Scientifique (C.N.R.S.), priority 2002, dated 2012):

How the values were obtained:
Lbc = assay: In vitro GEF assay on RhoA; assay type: biochemical; parameters: key to in vitro GEF assay (inhibition): +++^2 and +^2 represent respectively a full and a partial (see FIG. 3) inhibitory effect; +++^2 and +^2 represent respectively a full and a partial (see FIG. 3) inhibitory effect; −−^2 represents a lack of inhibitory effect; settings: for Effect on Lbc exchange activity on RhoA: 20-fold molar excess, Lbc 0.4 μM
Procedure: (§1) To test the specificity of TRIAPα inhibition in vitro, exchange experiments were performed either on RhoA with different RhoA-specific GEFs: Trio GEFD2 (0.4 μM), Kalirin GEFD2 (KalGEFD2, 1.7 μM), p63RhoGEF (Souchet et al., 2002) (0.4 μM) and Lbc (amino acids 172-598; Zheng et al., 1995) (0.4 μM), or on RhoG, with the RhoG-specific GEF domain of Trio (TrioGEFD1, 0.1 μM). Exchange assays were performed with the recombinant GEFs as described in FIG. 2A. Different concentrations of RhoGEFs were used to yield a similar nucleotide exchange efficiency. For each exchange factor, three independent experiments were done in absence (black bar) or in the presence (grey bar) of a 20-fold molar excess of TRIAPα.
(§2) An in vitro guanine nucleotide exchange (GEF) assay was used to test whether the TrioGEFD2-binding aptamers could inhibit the catalytic activity of TrioGEFD2 towards RhoA. For this purpose, the aptamers TRIAPα, TRIAPβ and TRIAPγ (including the Trx gene) were excised from pEG202 as EcoRI/NotI fragments and cloned into pGEX4T1 EcoRI/NotI. The aptamers were then expressed and purified from bacteria as GST fusion proteins, using standard procedures (Smith and Johnson, 1988). GTPase-GST fusion proteins were prepared, loaded with [^3H]GDP and the guanine nucleotide release assays were performed as described (Debant et al., 1996), using recombinant GST-TrioGEFD2 (a.a. 1848-2298), TrioDH2 (a.a. 1848-2096). For each point, 0.3 μM GTPase was mixed with or without 0.4 μM GEF in presence of non-labeled GTP, and the reaction mix was filtered after 0 min and 15 mm reaction at 25° C. The catalytic activity of TrioGEFD2 was thus measured by the decrease of the GTPase-associated radioactivity. The results are expressed as the ratio “exchange after 15 min over exchange after 0 min” (% bound [^3H]GDP-RhoA). To measure the effect of the aptamers on the exchange activity, a 20-fold molar excess of GST-TRIAPs was pre-incubated with GEFD2 (or GEFD1) for 30 min on ice before the exchange assay was carried out. For each experiment, data were obtained in triplicate.
(§3) The effect of GST-TRIAPα on other Rho-GEFs that display in vitro exchange activity on RhoA was next tested to investigate whether TRIAPα inhibition was specific of TrioGEFD2. The exchange activities of the RhoGEF Lbc (a.a. 1-424, FIG. 3)(Zheng et al., 1995) and Dbl (a.a. 495-826, data not shown) were not affected by GST-TRIAPα. The effect of GST-TRIAPα on the catalytic activity of RhoGEFs that display a high sequence similarity with TrioGEFD2 was then tested: the recently identified RhoA-specific p63RhoGEF (Souchet et al., 2002) (a.a. 149-374, 71.5% identity with TrioGEFD2, 0.4 μM) and the second Rho-GEF domain of the Trio family member Kalirin (KalGEFD2, a.a. 1850-2190, 65% identity with TrioGEFD2, 1.7 μM). Different concentrations of RhoGEFs were used to yield similar nucleotide exchange […]. For each exchange factor, three independent experiments were done in absence or in the presence of a 20-fold molar excess of GST-TRIAPα. […] Thus, the in vitro inhibitory activity of TRIAPα was selective for TrioGEFD2 (see table I for summary of the tested RhoGEFs).

p63RhoGEF = target: T1, p63RhoGEF (Homo sapiens, UniProt Q86VW2); assay: In vitro GEF assay on RhoA; assay type: biochemical; parameters: key to in vitro GEF assay (inhibition): +++^2 and +^2 represent respectively a full and a partial (see FIG. 3) inhibitory effect; +++^2 and +^2 represent respectively a full and a partial (see FIG. 3) inhibitory effect; −−^2 represents a lack of inhibitory effect; settings: for Effect on p63RhoGEF exchange activity on RhoA: 20-fold molar excess, p63RhoGEF 0.4 μM
T1 construct: (a.a. 149-374, 71.5% identity with TrioGEFD2, 0.4 μM); made in house
Procedure: as §1, §2, §3

T1 sequence (Q86VW2 149-374): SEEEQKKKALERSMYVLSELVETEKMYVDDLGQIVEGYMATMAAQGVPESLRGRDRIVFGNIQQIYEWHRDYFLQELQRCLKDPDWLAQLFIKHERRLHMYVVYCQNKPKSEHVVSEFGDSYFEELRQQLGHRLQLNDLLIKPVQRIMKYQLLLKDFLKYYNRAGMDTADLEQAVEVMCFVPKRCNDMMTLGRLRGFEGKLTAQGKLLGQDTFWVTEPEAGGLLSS
Sequence of Lbc (Q12802 1994-2333 limits assumed): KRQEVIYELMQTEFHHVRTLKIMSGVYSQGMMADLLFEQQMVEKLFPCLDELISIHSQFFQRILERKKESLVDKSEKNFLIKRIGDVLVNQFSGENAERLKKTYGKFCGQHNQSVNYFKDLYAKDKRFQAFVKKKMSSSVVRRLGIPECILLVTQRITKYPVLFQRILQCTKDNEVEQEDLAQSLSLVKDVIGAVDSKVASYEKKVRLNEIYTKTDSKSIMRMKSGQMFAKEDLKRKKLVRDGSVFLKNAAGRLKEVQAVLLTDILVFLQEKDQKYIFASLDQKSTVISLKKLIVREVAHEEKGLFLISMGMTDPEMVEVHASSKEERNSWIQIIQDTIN

Effect on p63RhoGEF exchange activity on RhoA (p63RhoGEF): has no effect
Effect on p63RhoGEF exchange activity on RhoA (p63RhoGEF; listed as GST-TRIAPα): had no effect
in vitro GEF assay (inhibition) (p63RhoGEF; RhoGEF p63RhoGEF): −−^2
B1: TRIAPα: aptamer of 154 amino acids: variable region of 42 amino acids inserted into the thioredoxin protein; tested as GST fusion (protein)
chain: MSDKIIHLTDDSFDTDVLKADGAILVDFWAEWCGPAREGADGAICGYNLATLVMLGPSERVFCPLCEPCSSDIYELMGPCKMIAPILDEIADEYQGKLTVAKLNIDQNPGTAPKYGIRGIPTLLLFKNGEVASATKVGALSKGQLKEFLDANLA
Effect on Lbc exchange activity on RhoA (Lbc): has no effect
Effect on Lbc exchange activity on RhoA (Lbc; listed as GST-TRIAPα): not affected
in vitro GEF assay (inhibition) (Lbc; RhoGEF Lbc): −−^2
